Target: T1, GST-M3-protein (recombinant streptococcal M-protein type 3) (S. pyogenes)
T1 construct: M-protein type 3 (M3-protein) of Streptococcus pyogenes; emm3 amplified from chromosomal DNA of the M3 strain with primers M3-1 (BamHI) and M3-3 (SalI); The GST tag is named on the protein for electron microscopy and the pull-down; also called M3-GST; GST-tagged M-protein type M3; source: E. coli, pGEX6P-1, purified under native conditions; not shown: GST, N-terminal, kept
Test: SPR; BIAcore 2000, CIV or CB3 immobilised on CM5 chip by amine coupling, M3-protein injected at 6.25-50 µg/ml, 10 mM HEPES, 100 mM NaCl, pH 7.4; apparent dissociation constants
Conditions: both partners purified

B1: Cyanogen bromide fragment 3 (CB3) of collagen type IV (domain or fragment)
chain 1: PGVGEKGEPGKPGPRGKPGKDGDKGEKGSPGFPGEPGYPGLIGRQGPQGEKGEAGPPGPPGIVIGTGPLGEKGERGYPGTPGPRGEPGPKGFPGLPGQPGPPGLPVPGQAGAPGFPGERGEKGDRGFPGTSLPGPSGRDGLPGPPGSPGPPGQPGYTNGIVECQPGPPGDQGPPGIPGQPGFIGEIGEKGQKGESCLICDIDGYRGPPGPQGPPGEIGFPGQPGAKGDRGLPGRDGVAGVPGPQGTPGLIGQPGAKGEPGEFYFDLRLKGDKGDPGFPGQPGM
chain 2: GFPGLRGYPGLSGEKGSPGQKGSRGLDGYQGPDGPRGPKGEAGDPGPPGLPAYSPHPSLAKGARGDPGFPGAQGEPGSQGEPGDPGLPGPPGLSIGDGDQRRGLPGEM
chain 3: GPKGFIGDPGIPALYGGPPGPDGKRGPPGPPGLPGPPGPDGFLFGLKGAKGRAGFPGLPGSPGARGPKGWKGDAGECRCTEGDEAIKGLPGLPGPKGFAGINGEPGRKGDRGDPGQHGLPGFPGLKGVPGNIGAPGPKGAKGDSRTITTKGERGQPGVPGVPGM
modifications: 125I (chloramine T method) in the pull-down, bacterial binding and overlay assays | 125I (chloramine T method) in the pull-down, bacterial binding and overlay assays
Kd: 60 nM

— PMC2646144, “Crucial Role of the CB3-Region of Collagen IV in PARF-Induced Acute Rheumatic Fever” (PLoS ONE, 2009)
